Reference: patent US20200078399A1 (LEGEND BIOTECH USA, published 2020)

T1: CD38 on K562.CD38.Luc cells (UniProt P28907 1-300, limits assumed)
T1 sequence (looked up): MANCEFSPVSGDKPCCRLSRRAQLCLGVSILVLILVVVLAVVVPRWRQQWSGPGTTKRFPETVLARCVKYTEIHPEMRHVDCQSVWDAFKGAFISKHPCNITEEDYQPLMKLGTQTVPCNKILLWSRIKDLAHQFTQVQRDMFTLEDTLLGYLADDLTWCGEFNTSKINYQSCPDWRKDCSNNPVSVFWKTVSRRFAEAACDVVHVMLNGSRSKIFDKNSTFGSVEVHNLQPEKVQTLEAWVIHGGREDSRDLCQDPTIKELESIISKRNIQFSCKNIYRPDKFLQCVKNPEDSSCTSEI

T2: human BCMA (B cell mature antigen, CD269, TNFRSF17) on cells (human, UniProt Q02223 1-184)
T2 sequence: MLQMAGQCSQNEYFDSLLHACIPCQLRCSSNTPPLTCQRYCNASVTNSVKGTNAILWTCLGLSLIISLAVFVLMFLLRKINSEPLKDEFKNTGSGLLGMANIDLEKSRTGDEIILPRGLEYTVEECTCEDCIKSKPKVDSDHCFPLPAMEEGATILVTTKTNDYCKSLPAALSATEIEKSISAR

B1: BCAR001 (other)
chain: QVKLEESGGGLVQAGRSLRLSCAASEHTFSSHVMGWFRQAPGKERESVAVIGWRDISTSYADSVKGRFTISRDNAKKTLYLQMNSLKPEDTAVYYCAARRIDAADFDSWGQGTQVTVSSGGGGSAVQLVESGGGLVQAGDSLRLTCTASGRAFSTYFMAWFRQAPGKEREFVAGIAWSGGSTAYADSVKGRFTISRDNAKNTVYLQMNSLKSEDTAVYYCASRGIEVEEFGAWGQGTQVTVSSTSTTTPAPRPPTPAPTIASQPLSLRPEACRPAAGGAVHTRGLDFACDIYIWAPLAGTCGVLLLSLVITLYCKRGRKKLLYIFKQPFMRPVQTTQEEDGCSCRFPEEEEGGCELRVKFSRSADAPAYQQGQNQLYNELNLGRREEYDVLDKRRGRDPEMGGKPRRKNPQEGLYNELQKDKMAEAYSEIGMKGERRRGKGHDGLYQGLSTATKDTYDALHMQALPPR

Tests used:
Experiment in all cases: cell-based or functional assay
[1] = biological target: human BCMA (B cell mature antigen, CD269, TNFRSF17) on cells (human) (UniProt Q02223)
[2] = biological target: T1, CD38 on K562.CD38.Luc cells
[3] = biological target: T2, human BCMA (B cell mature antigen, …)

Molecule | percentage of remaining viable RPMI8226.Luc cells (remaining luciferase activity), CAR-T from patient A, E/T 5:1, 20 hours [1] [%] | percentage of remaining viable RPMI8226.Luc cells (remaining luciferase activity), CAR-T from patient A, E/T 20:1, 20 hours [1] [%] | percentage of remaining viable RPMI8226.Luc cells (remaining luciferase activity), CAR-T from patient B, E/T 5:1, 20 hours [1] [%] | percentage of remaining viable RPMI8226.Luc cells (remaining luciferase activity), CAR-T from patient B, E/T 20:1, 20 hours [1] [%] | percentage of remaining viable RPMI8226.Luc cells (remaining luciferase activity), CAR-T from patient C, E/T 5:1, 20 hours [1] [%] | percentage of remaining viable RPMI8226.Luc cells (remaining luciferase activity), CAR-T from patient C, E/T 20:1, 20 hours [1] [%] | IFN gamma release in co-culture with K562.CD38.Luc (BCMA negative control; UnT 85.65 pg/ml), mean [2] [pg/mL] | IFN gamma release in co-culture with RPMI8226.Luc, mean [3] [pg/mL] | IFN gamma release in co-culture with Raji.Luc, mean [3] [pg/mL]
LCAR-B27S CAR | 68.6 | 3.17 | 84 | 9.32 | 101 | 10.1 | – | – | –
LCAR-B38M CAR | 33.4 | 3.97 | 40.9 | 4.45 | 30 | 2.56 | – | – | –
B1 | – | – | – | – | – | – | 136 | 1100 | 796
